This experiment has as its target His6-maltose binding protein-SARS-CoV-2 N3 (spacer B/N3 region, residues 365-419) (SARS-CoV-2) (UniProt P0DTC9). The experiment in a line: SEC-MALS. On the technique in general: In gel filtration, larger molecules generally elute earlier.

A word on the stoichiometry N: it is the number of molecules, sites or subunits per partner or assembly.

On to “His6-maltose binding protein-SARS-CoV-2 N3 (spacer B/N3 region, residues 365-419) (from UniProt P0DTC9 365-419) (domain or fragment)”, for which the stoichiometry N was determined as 2.

Source of the values: PMC7405475.
